B1: Glutamate dehydrogenase, P96110 (parent)
chain: MPEKSLYEMAVEQFNRAASLMDLESDLAEVLRRPKRVLIVEFPVRMDDGHVEVFTGYRVQHNVARGPAKGGIRYHPDVTLDEVKALAFWMTWKTAVMNLPFGGGKGGVRVDPKKLSRNELERLSRRFFSEIQVIIGPYNDIPAPDVNTNADVMAWYMDTYSMNVGHTVLGIVTGKPVELGGSKGREEATGRGVKVCAGLAMDVLGIDPKKATVAVQGFGNVGQFAALLISQELGSKVVAVSDSRGGIYNPEGFDVEELIRYKKEHGTVVTYPKGERITNEELLELDVDILVPAALEGAIHAGNAERIKAKAVVEGANGPTTPEADEILSRRGILVVPDILANAGGVTVSYFEWVQDLQSFFWDLDQVRNALEKMMKGAFNDVMKVKEKYNVDMRTAAYILAIDRVAYATKKRGIYP

Variants of: B1
Conditions: Thermotoga maritima (strain ATCC 43589 / DSM 3109 / JCM 10099 / NBRC 100826 / MSB8), pH 7, CD, sodium phosphate 20 mM, reversible: yes, structure 1B26, whole UniProt chain shown

Variant	ddG of mutation (higher = less stable) (20 °C, GdnHCl) [kcal/mol]	denaturant m value (20 °C, GdnHCl) [kcal/mol/M]	denaturant midpoint (higher = more stable) (20 °C, GdnHCl) [M]	unfolding free energy (20 °C, GdnHCl) [kcal/mol]	ddG of mutation (higher = less stable) (20 °C, Urea) [kcal/mol]	denaturant m value (20 °C, Urea) [kcal/mol/M]	denaturant midpoint (higher = more stable) (20 °C, Urea) [M]	unfolding free energy (20 °C, Urea) [kcal/mol]	Tm (Thermal) [°C]	change of melting temperature, mutant - wild type (higher = more stable) (Thermal) [°C]	unfolding enthalpy (van 't Hoff) (Thermal) [kcal/mol]	ddG of mutation (higher = less stable) (69.5 °C, Thermal) [kcal/mol]
K194A E232A	-0.92	2.73	2.04	6.04	-0.51	1.42	3.67	5.36	71.2	1.7	52.7	
R191A K194A					0.16	1.33	3.21	4.69	67.5	-2	53.2	
E232A	0.95	3	1.41	4.17	0.35	1.6	3.08	4.5	68.4	-1.1	41	0.17
